Assay results as given in IntAct's records for PubMed 14596919.

B1: Disabled homolog 2 (Mus musculus), P98078 (parent)
chain: MSNEVETSTTNGQPDQQAAPKAPSKKEKKKGSEKTDEYLLARFKGDGVKYKAKLIGIDDVPDARGDKMSQDSMMKLKGMAAAGRSQGQHKQRIWVNISLSGIKIIDEKTGVIEHEHPVNKISFIARDVTDNRAFGYVCGGEGQHQFFAIKTGQQAEPLVVDLKDLFQVIYNVKKKEEDKKKVEEANKAEENGSEALMTLDDQANKLKLGVDQMDLFGDMSTPPDLNSPTESKDILLVDLNSEIDTNQNSLRENPFLTNGVTSCSLPRPKPQASFLPENAFSANLNFFPTPNPDPFRDDPFAQPDQSAPSSFDSLTSPDQKKASLSSSSTPQSKGPLNGDTDYFGQQFDQLSNRTGKPEAQGGPWPYPSSQTQQAVRTQNGVSEREQNGFHIKSSPNPFVGSPPKGLSVPNGVKQDLESSVQSSAHDSIAIIPPPQSTKPGRGRRTAKSSANDLLASDIFASEPPGQMSPTGQPAVPQSNFLDLFKGNAPAPVGPLVGLGTVPVTPPQAGPWTPVVYSPSTTVVPGAIISGQPPSFRQPLVFGTTPAVQVWNQSPSFATPASPPPPTVWCPTTSVAPNAWSSTSPLGNPFQSNNIFPPPTMSTQSSPQPMMSSVLATPPQPPPRNGPLKDIPSDAFTGLDPLGDKEVKEVKEMFKDFQLRQPPLVPSRKGETPPSGTSSAFSSYFNNKVGIPQEHVDHDDFDANQLLNKINEPPKPAPRQGVLLGTKSADNSLENPFSKGFSSSNPSVVSQPASSDPHRSPFGNPFA

Variants of: B1
Settings: with sh3k1_human SH3KBP1, Q96B97
sh3k1_human SH3KBP1, Q96B97, sequence (Q96B97 whole entry): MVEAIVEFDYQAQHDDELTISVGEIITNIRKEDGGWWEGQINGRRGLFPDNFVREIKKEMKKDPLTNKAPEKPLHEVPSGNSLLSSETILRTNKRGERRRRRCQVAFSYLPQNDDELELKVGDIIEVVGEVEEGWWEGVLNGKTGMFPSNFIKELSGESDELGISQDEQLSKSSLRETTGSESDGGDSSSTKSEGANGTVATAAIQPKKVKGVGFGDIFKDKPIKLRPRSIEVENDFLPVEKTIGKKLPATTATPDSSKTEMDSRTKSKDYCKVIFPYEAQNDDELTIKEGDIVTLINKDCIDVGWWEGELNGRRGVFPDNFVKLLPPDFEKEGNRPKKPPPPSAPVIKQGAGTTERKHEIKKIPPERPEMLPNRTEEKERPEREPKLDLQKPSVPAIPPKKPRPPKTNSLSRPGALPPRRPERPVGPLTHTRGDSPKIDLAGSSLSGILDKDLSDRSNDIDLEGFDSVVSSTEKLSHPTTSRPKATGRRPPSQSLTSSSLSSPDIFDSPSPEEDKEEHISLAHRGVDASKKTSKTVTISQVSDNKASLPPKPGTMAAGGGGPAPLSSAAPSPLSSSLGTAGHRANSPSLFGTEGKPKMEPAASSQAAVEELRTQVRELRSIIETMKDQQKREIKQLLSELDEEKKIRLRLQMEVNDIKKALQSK

Row | effect of a mutation on the interaction | Variant
1 | disrupting interaction | R718A

Variants of: B1
Settings: with sh3k1_human SH3KBP1, Q96B97
Remark: another data set of the same source

Row | effect of a mutation on the interaction | Variant
2 | decreasing interaction | R718A
